According to patent publication US20080182978A1, “ANTI-NGF ANTIBODIES AND METHODS USING SAME” (RINAT NEUROSCIENCE CORP, priority 2002, published 2008):

Tested on: adjuvant-induced arthritis
Experiment: Dose response of E3 on vocalization intensity in arthritic rats (Example 9)
Assay type: in vivo, rat
Procedure: The ability of E3 to produce reduction in pain in arthritic rats was further investigated by examining the dose response relationship between E3 administration and pain reduction. Rats were treated with adjuvant to induce arthritis as described above. Ten rats not injected with adjuvant were used as non-arthritic controls. Fourteen days after adjuvant injection, animals were qualified into the study based on the criteria stated above, randomized into eight groups of ten rats and tested for the intensity of their vocalization response. They were then dosed on day 14 with saline, or 0.003 mg/kg, 0.01 mg/kg, 0.03 mg/kg, 0.1 mg/kg, 0.3 mg/kg, 1 mg/kg or 5 mg/kg of E3 antibody as described above. Animals were tested for their vocalization response on days 16, 18, 20, and 24. Animals were redosed with saline or the same dose of E3 on day 18 after the vocalization testing. Animals were also weighed each day, starting at day 14. Thus, animals were dosed twice with a given dose of antibody or saline on days 14 and 18, and assessed for pain five times, on days 14, 16, 18, 20 and 24. Data are shown in Tables 20-22 and in FIGS. 20-22. The effect of treating animals with various doses of anti-NGF antibody E3 on pain induced vocalization (data shown in Table 20) was statistically analyzed by using two-way ANOVA to compare the results obtained pairwise between arthritic animals treated with vehicle with those treated with a given dose of antibody E3. […] Even at the lowest dose tested (0.003 mg/kg of E3), the difference in vocalization was significant (p<0.0001).

B1: E3: humanized, affinity matured anti-NGF antagonist antibody; variable regions SEQ ID NO:1 and 2; human IgG2a (A330P331 to S330S331), kappa (antibody, V domains shown)
VH: QVQLQESGPGLVKPSETLSLTCTVSGFSLIGYDLNWIRQPPGKGLEWIGIIWGDGTTDYNSAVKSRVTISKDTSKNQFSLKLSSVTAADTAVYYCARGGYWYATSYYFDYWGQGTLVTVS
VL: DIQMTQSPSSLSASVGDRVTITCRASQSISNNLNWYQQKPGKAPKLLIYYTSRFHSGVPSRFSGSGSGTDFTFTISSLQPEDIATYYCQQEHTLPYTFGQGTKLEIKRT
modifications: human IgG2a constant (A330S/P331S) and kappa constant missing
effect on pain induced vocalization vs vehicle (two-way ANOVA) (0.003 to 5 mg/kg, p<0.0001): highly significant effect at all levels of E3 tested
Vocalization intensity (E3 0.003 mg/kg on days 14+18, day 14): 981.75 mV
Vocalization intensity (E3 0.003 mg/kg on days 14+18, day 16): 825.60 mV
Vocalization intensity (E3 0.003 mg/kg on days 14+18, day 18): 427.43 mV
Vocalization intensity (E3 0.003 mg/kg on days 14+18, day 20): 448.00 mV
Vocalization intensity (E3 0.003 mg/kg on days 14+18, day 24): 724.50 mV
Vocalization intensity (E3 0.01 mg/kg on days 14+18, day 14): 1007.28 mV
Vocalization intensity (E3 0.01 mg/kg on days 14+18, day 16): 576.88 mV
Vocalization intensity (E3 0.01 mg/kg on days 14+18, day 18): 334.45 mV
Vocalization intensity (E3 0.01 mg/kg on days 14+18, day 20): 313.13 mV
Vocalization intensity (E3 0.01 mg/kg on days 14+18, day 24): 596.38 mV
Vocalization intensity (E3 0.03 mg/kg on days 14+18, day 14): 963.18 mV
Vocalization intensity (E3 0.03 mg/kg on days 14+18, day 16): 448.43 mV
Vocalization intensity (E3 0.03 mg/kg on days 14+18, day 18): 292.52 mV
Vocalization intensity (E3 0.03 mg/kg on days 14+18, day 20): 209.48 mV
Vocalization intensity (E3 0.03 mg/kg on days 14+18, day 24): 513.60 mV
Vocalization intensity (E3 0.1 mg/kg on days 14+18, day 14): 1159.30 mV
Vocalization intensity (E3 0.1 mg/kg on days 14+18, day 16): 283.71 mV
Vocalization intensity (E3 0.1 mg/kg on days 14+18, day 18): 262.96 mV
Vocalization intensity (E3 0.1 mg/kg on days 14+18, day 20): 79.74 mV
Vocalization intensity (E3 0.1 mg/kg on days 14+18, day 24): 432.45 mV
Vocalization intensity (E3 0.3 mg/kg on days 14+18, day 14): 1191.58 mV
Vocalization intensity (E3 0.3 mg/kg on days 14+18, day 16): 151.85 mV
Vocalization intensity (E3 0.3 mg/kg on days 14+18, day 18): 194.19 mV
Vocalization intensity (E3 0.3 mg/kg on days 14+18, day 20): 66.27 mV
Vocalization intensity (E3 0.3 mg/kg on days 14+18, day 24): 176.32 mV
Vocalization intensity (E3 1.0 mg/kg on days 14+18, day 14): 1067.00 mV
Vocalization intensity (E3 1.0 mg/kg on days 14+18, day 16): 98.62 mV
Vocalization intensity (E3 1.0 mg/kg on days 14+18, day 18): 174.13 mV
Vocalization intensity (E3 1.0 mg/kg on days 14+18, day 20): 71.23 mV
Vocalization intensity (E3 1.0 mg/kg on days 14+18, day 24): 19.21 mV
fall of vocalization intensity (E3 1 mg/kg, within two days (earliest time point tested)): 90%
Vocalization intensity (E3 5.0 mg/kg on days 14+18, day 14): 896.25 mV
Vocalization intensity (E3 5.0 mg/kg on days 14+18, day 16): 79.18 mV
Vocalization intensity (E3 5.0 mg/kg on days 14+18, day 18): 200.42 mV
Vocalization intensity (E3 5.0 mg/kg on days 14+18, day 20): 63.57 mV
Vocalization intensity (E3 5.0 mg/kg on days 14+18, day 24): 12.35 mV
pain relief at lowest dose (doses as low as 0.003 mg/kg): at least partial pain relief
